Assay results from patent US20150197564A1.

Target: hANGPTL3(17-460)-His (human) (UniProt Q9Y5C1)
Experiment: Biacore cross-competition, 25C; first antibody at 25 µg/ml on captured antigen

Chain of hANGPTL3(17-460)-His (human) (Q9Y5C1 other isoform, or with tags, fused parts or gaps): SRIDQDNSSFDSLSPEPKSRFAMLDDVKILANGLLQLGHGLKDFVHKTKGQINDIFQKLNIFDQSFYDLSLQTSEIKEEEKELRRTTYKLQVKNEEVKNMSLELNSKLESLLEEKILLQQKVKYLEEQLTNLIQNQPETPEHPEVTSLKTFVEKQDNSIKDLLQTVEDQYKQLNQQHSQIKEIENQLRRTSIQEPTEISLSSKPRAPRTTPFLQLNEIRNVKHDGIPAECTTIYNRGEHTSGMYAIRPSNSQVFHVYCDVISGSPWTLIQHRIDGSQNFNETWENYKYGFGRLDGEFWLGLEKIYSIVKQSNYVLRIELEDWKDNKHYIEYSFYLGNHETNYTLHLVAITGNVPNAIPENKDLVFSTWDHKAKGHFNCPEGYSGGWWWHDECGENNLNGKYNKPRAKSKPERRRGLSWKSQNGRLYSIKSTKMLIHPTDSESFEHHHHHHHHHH

mAb1 binding response (RU): 81 RU
Substance: Negative Control (Table 8) (antibody)
